# Laboratory results as given in patent US6872803.
# [ ]: non-standard residue; d: D form. Hyp = O=C(O)[C@@H]1C[C@@H](O)CN1; NMeI = CC[C@H](C)[C@H](NC)C(=O)O
# How the values were obtained:
# [1] = molecular target: BK receptor derived from guinea pig ilea (guinea pig); assay: inhibition of 3H-BK (200 pM) binding to guinea pig ileum membrane fraction; test compound at 10^-7 M
# [2] = molecular target: BK receptor derived from guinea pig ilea (guinea pig); assay: inhibition of 3H-BK (200 pM) binding to guinea pig ileum membrane fraction; test compound at 10^-8 M
# [3] = molecular target: Bovine lung-derived ANP receptor (bovine); assay: displacement of 125I-rat ANP from bovine lung membrane fraction, filter binding
# Sequence of Bovine lung-derived ANP receptor (bovine) (P10730 42-537): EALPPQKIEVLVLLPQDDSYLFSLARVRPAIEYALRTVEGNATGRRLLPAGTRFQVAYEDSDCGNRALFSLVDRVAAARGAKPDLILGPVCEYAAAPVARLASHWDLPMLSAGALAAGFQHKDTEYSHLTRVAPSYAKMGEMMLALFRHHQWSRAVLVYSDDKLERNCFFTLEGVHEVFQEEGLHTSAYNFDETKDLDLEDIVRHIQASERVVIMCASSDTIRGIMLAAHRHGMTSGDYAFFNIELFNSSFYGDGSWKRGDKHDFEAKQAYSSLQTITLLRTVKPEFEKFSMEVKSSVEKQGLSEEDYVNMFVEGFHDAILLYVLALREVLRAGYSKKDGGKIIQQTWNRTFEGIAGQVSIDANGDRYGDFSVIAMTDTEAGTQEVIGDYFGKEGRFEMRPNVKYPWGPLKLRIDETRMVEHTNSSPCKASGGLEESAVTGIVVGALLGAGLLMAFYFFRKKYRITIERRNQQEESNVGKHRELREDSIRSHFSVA
# Sequence of BK receptor derived from guinea pig ilea (guinea pig) (O70526 whole entry): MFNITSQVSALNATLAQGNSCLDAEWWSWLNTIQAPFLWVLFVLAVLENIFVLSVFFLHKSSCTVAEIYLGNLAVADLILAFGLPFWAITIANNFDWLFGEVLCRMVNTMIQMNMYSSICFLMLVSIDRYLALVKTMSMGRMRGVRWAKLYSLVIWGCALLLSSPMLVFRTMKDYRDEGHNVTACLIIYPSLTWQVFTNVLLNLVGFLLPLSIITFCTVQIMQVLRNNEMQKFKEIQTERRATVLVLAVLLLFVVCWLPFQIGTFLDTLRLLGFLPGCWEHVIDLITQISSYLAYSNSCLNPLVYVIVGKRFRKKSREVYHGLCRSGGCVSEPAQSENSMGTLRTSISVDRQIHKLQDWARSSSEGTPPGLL
Binder,Percentage inhibition (%) [1],Percentage inhibition (%) [2],IC50 [3]
"H-[dR]RP[Hyp]GFS[dF]LR-OH (SMILES CC(C)C[C@H](NC(=O)[C@@H](Cc1ccccc1)NC(=O)[C@H](CO)NC(=O)[C@H](Cc1ccccc1)NC(=O)CNC(=O)[C@@H]1C[C@@H](O)CN1C(=O)[C@@H]1CCCN1C(=O)[C@H](CCCNC(=N)N)NC(=O)[C@H](N)CCCNC(=N)N)C(=O)N[C@@H](CCCNC(=N)N)C(=O)O) [Compound (m), H-D-Arg-Arg-Pro-Hyp-Gly-Phe-Ser-D-Phe-Leu-Arg-OH]",68%,20%,–
"H-FGGR[NMeI]DRI-NH2 (SMILES CC[C@H](C)[C@H](NC(=O)[C@H](CCCNC(=N)N)NC(=O)[C@H](CC(=O)O)NC(=O)[C@H]([C@@H](C)CC)N(C)C(=O)[C@H](CCCNC(=N)N)NC(=O)CNC(=O)CNC(=O)[C@@H](N)Cc1ccccc1)C(N)=O) [Compound (k), H-Phe-Gly-Gly-Arg-(N-Me)Ile-Asp-Arg-Ile-NH2]",–,–,21 nM
"H-FGG[dR]ID[dR]I-NH2 (SMILES CC[C@H](C)[C@H](NC(=O)[C@@H](CCCNC(=N)N)NC(=O)[C@H](CC(=O)O)NC(=O)[C@@H](NC(=O)[C@@H](CCCNC(=N)N)NC(=O)CNC(=O)CNC(=O)[C@@H](N)Cc1ccccc1)[C@@H](C)CC)C(N)=O) [Compound (j), H-Phe-Gly-Gly-D-Arg-Ile-Asp-D-Arg-Ile-NH2]",–,–,5400 nM
